Experimental data reported in patent publication US20250236667A1, “ANTIBODIES TO MUTANT CALRETICULIN AND USES THEREOF” (CENTRAL ADELAIDE LOCAL HEALTH NETWORK INC, priority 2021, published 2025).

How the values were obtained:
[1] = system: TF-1 TpoR CALR^del61 cells in NSG mice; assay: Chloroma xenograft model (subcutaneous injection); format: in vivo
Experimental: All procedures were approved by the South Australian Health and Medical Research Animal Ethics Committee (Protocol SAM21-018). Bone marrow engraftment model: 4-6 week old NSG mice were x-ray irradiated with 150 cGy and 5×10^5 cells (TF-1-TpoR CALR^del61) or 5×10^4 cells (100 nM ruxolitinib resistant TF-1 TpoR CALR^del61) were intravenously injected into mice. […] Tail vein bleeds were taken at 3 weeks and analysed via flow cytometry to determine human leukaemia content in the peripheral blood. Leukemic cells were PI-, mCD45.1, hCD33+, zsGreen+. Mice were monitored daily and euthanized once clinical symptoms were observed. At the time of euthanasia, cardiac puncture was performed to obtain both peripheral blood and serum for analysis. Additionally, bone marrow from both femurs, spine and spleens were analysed for leukemic content as detailed above. Chloroma model: 4-6 week old NSG mice were anaesthetised by isoflurane inhalation and shaved on the left back/flank and 1×10^7 cells were injected into the mice. Cells were pre-treated with 20 μg/mL IgG or 4D7 for 1 hour prior to injection. […] Tumour progression was assessed through caliper measurements every 2 days. Mice were euthanised once tumours began to impede movement, show signs of ulceration or if any measurement of the tumour exceeded 30 mm (length, width or depth).

[2] = system: ruxolitinib-resistant TF-1 TpoR CALR^del61 cells; assay: Colony formation in MethoCult; format: cell-based, human; conditions: after 72 hours of treatment
Experimental: A. Graph showing effect of ruxolitinib on megakaryocyte differentiation at 50 and 100 nM in healthy CD34+ cells (n=4). B. Effect of 4D7 on TPO-dependent megakaryocyte differentiation of healthy CD34+ cells cultured with 20 μg/mL 4D7 or IgG control (n=4). C. Total numbers of hematopoietic colonies plated in MethoCult from healthy cord blood after treatment with 4D7 or IgG. CFU-GM, colony forming unit-granulocyte macrophage: BFU-E, blast forming unit-erythroid: CFU-GEMM, colony forming unit granulocyte, erythroid, monocyte, megakaryocyte (n=3).D. CD41+megakaryocyte colonies from healthy CD34+ cells observed on collagen matrix after 4D7 treatment. Colonies were cultured in TPO, SCF. IL-9 and IL-3. E. Number of megakaryocyte colony forming units observed in MegaCult assay after treatment of healthy cord blood CD34+ cells with either IgG or 4D7 (n=3). F. Western blot showing signalling in ruxolitinib-resistant TF-1 TpoR CALR^del61 compared to ruxolitinib sensitive TF-1 TpoR CALR^del61 cells after treatment with 100 nM ruxolitinib for 16 hours or 30 minutes and blotted for phospho-STAT5, total STAT5, phospho-ERK, total ERK and actin as indicated. Ruxolitinib-sensitive cells were non-viable after 16 hours of treatment. […] Cells counted using Trypan Blue exclusion with replicate wells (n=3). […]

[3] = system: TF-1 TpoR CALR^del61 and TF-1 TpoR CALR^del52 cells; assay: Western blot of caspase 3 cleavage; format: cell-based, human; conditions: after 4D7 treatment, 20 μg/mL
Experimental: A. Cell extracts blotted for phospho-STAT5, total STAT5, phospho-ERK, total ERK and actin from TF-1 TpoR cells after incubation with 10 or 20 μg/mL 4D7 or IgG for 4 or 8 hours, in presence of TPO. The last line indicates TPO withdrawal. B. Similar experiment using TPO-independent TF-1 TpoR CALR^del61 cells. C. Similar experiment using TPO-independent TF-1 TpoR CALR^del52 cells at 8 hours. D. Fraction of apoptotic sub-Go population of TF-1 TpoR CALR^del61 cells after 48 hours of 4D7 or IgG treatment (n=3). E. Western blot showing caspase 3 cleavage occurring within 24 hours of TPO withdrawal in TPO dependent TF-1 TpoR cells. An increase in cleaved caspase 3 is observed after 48 hours of treatment with 20 μg/mL 4D7 in TF-1 TpoR CALR^del61 and TF-1 TpoR CALR^del52 cells. F. Western blot of TpoR immunoprecipitation under non-reducing conditions showing associated CALR 50 kDa monomers and 100 kDa dimers (arrowheads) present only in TF-1 TpoR CALR^del61 disrupted by 8 hour treatment with 20 μg/mL 4D7 but not PBS or 20 μg/mL IgG. CALR monomers & dimers are detectable by polyclonal anti-wild type CALR or anti-mutant CALR monoclonal antibodies. Arrowheads, detected mutant CALR protein: asterisk, non-specific bands. G. Proposed model for the mechanism of action of 4D7 on mutant CALR. […]

B1: 4D7: rat monoclonal IgG2a antibody against the mutant CALR neoepitope; VH SEQ ID NO: 5, VL SEQ ID NO: 7 (antibody, listed as Rattus rattus, V domains shown)
VH: QVQLQQSGAELAKPGSSVKISCKASGYTFTNYDMSWIKQRPGQALEWIGAINPGNGVTDYNEKFRGKATLTVDKSSSTAFMQLSSLTPEDTAVYHCAREYRDNYGYFDYWGQGVMVTVSS
VL: DIVLTQTPVSLSVTLGDQASISCRSSQSLEYSDGYTYLDWFLQKPGQSPQLLIYEVSSRFSGVPDRFIGRGSGTDFTLKISRVEPEDLGVYYCFQATHDPFTFGSGTKLEIK
survival, hazard ratio ([1]; 4D7 vs IgG, P=0.02): 0.19
mean tumour volume ([1]; 21 days post-engraftment, 12.5 mg/kg twice weekly, P=0.04): 353 mm^3
inhibitory activity on colony formation [2]: strong inhibitory activity
time at which caspase 3 cleavage occurred [3]: ≤ 24 h
time at which caspase 3 cleavage peaked [3]: 48 h
